Test results taken from the supplement of paper PMC11246515.
± gives the standard deviation of the averaged measurements.

Assay: total protein half-life in vivo (active degradation + dilution); higher = more stable protein
[1] = E. coli NCM3722 delta-clpP delta-lon delta-hslV, growth: N-lim chemostat, doubling time 6 h
[2] = E. coli NCM3722 delta-clpP, growth: N-lim chemostat, doubling time 6 h
[3] = E. coli NCM3722 delta-hslV, growth: N-lim chemostat, doubling time 6 h
[4] = E. coli NCM3722 delta-lon, growth: N-lim chemostat, doubling time 6 h
[5] = E. coli NCM3722 delta-smpB, growth: N-lim chemostat, doubling time 6 h
[6] = wild type E. coli NCM3722, growth: C-lim chemostat, doubling time 3 h
[7] = wild type E. coli NCM3722, growth: C-lim chemostat, doubling time 6 h
[8] = wild type E. coli NCM3722, growth: C-lim chemostat, doubling time 12 h
[9] = wild type E. coli NCM3722, growth: N-lim chemostat, doubling time 6 h
[10] = wild type E. coli NCM3722, growth: N-lim chemostat, doubling time 12 h
[11] = wild type E. coli NCM3722, growth: P-lim chemostat, doubling time 6 h
[12] = wild type E. coli NCM3722, growth: P-lim chemostat, doubling time 12 h

Sequence: MILERVEIVGFRGINRLSLMLEQNNVLIGENAWGKSSLLDALTLLLSPESDLYHFERDDFWFPPGDINGREHHLHIILTFRESLPGRHRVRRYRPLEACWTPCTDGYHRIFYRLEGESAEDGSVMTLRSFLDKDGHPIDVEDINDQARHLVRLMPVLRLRDARFMRRIRNGTVPNVPNVEVTARQLDFLARELSSHPQNLSDGQIRQGLSAMVQLLEHYFSEQGAGQARYRLMRRRASNEQRSWRYLDIINRMIDRPGGRSYRVILLGLFATLLQAKGTLRLDKDARPLLLIEDPETRLHPIMLSVAWHLLNLLPLQRIATTNSGELLSLTPVEHVCRLVRESSRVAAWRLGPSGLSTEDSRRISFHIRFNRPSSLFARCWLLVEGETETWVINELARQCGHHFDAEGIKVIEFAQSGLKPLVKFARRMGIEWHVLVDGDEAGKKYAATVRSLLNNDREAEREHLTALPALDMEHFMYRQGFSDVFHRMAQIPENVPMNLRKIISKAIHRSSKPDLAIEVAMEAGRRGVDSVPTLLKKMFSRVLWLARGRAD
- total protein half-life in vivo [1]: 6.44 ± 0.23 h
- total protein half-life in vivo [2]: 2.21 h

Sequence: MKTETPSVKIVAITADEAGQRIDNFLRTQLKGVPKSMIYRILRKGEVRVNKKRIKPEYKLEAGDEVRIPPVRVAEREEEAVSPHLQKVAALADVILYEDDHILVLNKPSGTAVHGGSGLSFGVIEGLRALRPEARFLELVHRLDRDTSGVLLVAKKRSALRSLHEQLREKGMQKDYLALVRGQWQSHVKSVQAPLLKNILQSGERIVRVSQEGKPSETRFKVEERYAFATLVRCSPVTGRTHQIRVHTQYAGHPIAFDDRYGDREFDRQLTEAGTGLNRLFLHAAALKFTHPGTGEVMRIEAPMDEGLKRCLQKLRNAR [P0AA39]
- total protein half-life in vivo [1]: 5.63 ± 0.067 h
- total protein half-life in vivo [2]: 5.2 ± 0.19 h
- total protein half-life in vivo [3]: 5.84 ± 1 h
- total protein half-life in vivo [4]: 5.68 ± 0.26 h
- total protein half-life in vivo [5]: 5.43 ± 0.88 h
- total protein half-life in vivo [6]: 3.01 ± 0.092 h
- total protein half-life in vivo [7]: 5.78 ± 0.14 h
- total protein half-life in vivo [8]: 9.77 ± 0.8 h
- total protein half-life in vivo [9]: 5.21 ± 0.31 h
- total protein half-life in vivo [10]: 9.13 ± 0.59 h
- total protein half-life in vivo [11]: 5.56 ± 0.089 h
- total protein half-life in vivo [12]: 11.6 ± 0.92 h

Sequence: MKIAILSRDGTLYSCKRLREAAIQRGHLVEILDPLSCYMNINPAASSIHYKGRKLPHFDAVIPRIGTAITFYGTAALRQFEMLGSYPLNESVAIARARDKLRSMQLLARQGIDLPVTGIAHSPDDTSDLIDMVGGAPLVVKLVEGTQGIGVVLAETRQAAESVIDAFRGLNAHILVQEYIKEAQGCDIRCLVVGDEVVAAIERRAKEGDFRSNLHRGGAASVASITPQEREIAIKAARTMALDVAGVDILRANRGPLVMEVNASPGLEGIEKTTGIDIAGKMIRWIERHATTEYCLKTGG [P0C0U4]
- total protein half-life in vivo [2]: 4.13 ± 0.23 h
- total protein half-life in vivo [3]: 3.76 ± 0.12 h
- total protein half-life in vivo [4]: 4.31 ± 0.27 h
- total protein half-life in vivo [5]: 3.78 ± 0.36 h
- total protein half-life in vivo [6]: 2.85 ± 0.062 h
- total protein half-life in vivo [7]: 5.3 ± 0.24 h
- total protein half-life in vivo [8]: 10.9 ± 0.29 h
- total protein half-life in vivo [9]: 3.77 ± 0.19 h
- total protein half-life in vivo [10]: 6.029 ± 0.023 h
- total protein half-life in vivo [11]: 5.56 ± 0.65 h

Sequence: MTVETQLNPTQPVNQQIYRILRRDIVHCLIAPGTPLSEKEVSVRFNVSRQPVREAFIKLAENGLIQIRPQRGSYVNKISMAQVRNGSFIRQAIECAVARRAASMITESQCYQLEQNLHQQRIAIERKQLDDFFELDDNFHQLLTQIADCQLAWDTIENLKATVDRVRYMSFDHVSPPEMLLRQHLDIFSALQKRDGDAVERAMTQHLQEISESVRQIRQENSDWFSEE [P0ACM2]
- total protein half-life in vivo [1]: 6.15 ± 0.24 h
- total protein half-life in vivo [2]: 7.72 h
- total protein half-life in vivo [3]: 5.98 ± 0.4 h
- total protein half-life in vivo [4]: 5.9 ± 0.9 h
- total protein half-life in vivo [5]: 4.12 ± 1.4 h
- total protein half-life in vivo [6]: 3.42 ± 0.53 h
- total protein half-life in vivo [7]: 6.44 ± 1.2 h
- total protein half-life in vivo [8]: 10.2 ± 0.65 h
- total protein half-life in vivo [9]: 5.71 ± 0.13 h
- total protein half-life in vivo [10]: 11.7 ± 1.3 h
- total protein half-life in vivo [11]: 5.18 ± 0.51 h
- total protein half-life in vivo [12]: 9.7 ± 1.7 h

Sequence: MEFLMDPSIWAGLLTLVVLEIVLGIDNLVFIAILADKLPPKQRDKARLLGLSLALIMRLGLLSLISWMVTLTKPLFTVMDFSFSGRDLIMLFGGIFLLFKATTELHERLENRDHDSGHGKGYASFWVVVTQIVILDAVFSLDAVITAVGMVNHLPVMMAAVVIAMAVMLLASKPLTRFVNQHPTVVVLCLSFLLMIGLSLVAEGFGFHIPKGYLYAAIGFSIIIEVFNQIARRNFIRHQSTLPLRARTADAILRLMGGKRQANVQHDADNPMPMPIPEGAFAEEERYMINGVLTLASRSLRGIMTPRGEISWVDANLGVDEIREQLLSSPHSLFPVCRGELDEIIGIVRAKELLVALEEGVDVAAIASASPAIIVPETLDPINLLGVLRRARGSFVIVTNEFGVVQGLVTPLDVLEAIAGEFPDADETPEIITDGDGWLVKGGTDLHALQQALDVEHLADDDDIATVAGLVISANGHIPRVGDVIDVGPLHITIIEANDYRVDLVRIVKEQPAHDEDE [P0AEC0]
- total protein half-life in vivo [1]: 6.99 ± 0.2 h
- total protein half-life in vivo [2]: 6.691 ± 0.015 h
- total protein half-life in vivo [3]: 6.46 ± 0.09 h
- total protein half-life in vivo [4]: 6.27 ± 0.49 h
- total protein half-life in vivo [5]: 5.4 ± 0.28 h
- total protein half-life in vivo [7]: 5.88 ± 0.19 h
- total protein half-life in vivo [8]: 12.3 ± 0.92 h
- total protein half-life in vivo [9]: 6.71 ± 0.84 h
- total protein half-life in vivo [10]: 14.2 ± 0.73 h
- total protein half-life in vivo [11]: 6.06 ± 0.7 h
- total protein half-life in vivo [12]: 12.2 ± 1.3 h

Sequence: MKHDHFVVQSPDKPAQQLLLLFHGVGDNPVAMGEIGNWFAPLFPDALVVSVGGAEPSGNPAGRQWFSVQGITEDNRQARVDAIMPTFIETVRYWQKQSGVGANATALIGFSQGAIMVLESIKAEPGLASRVIAFNGRYASLPETASTATTIHLIHGGEDPVIDLAHAVAAQEALISAGGDVTLDIVEDLGHAIDNRSMQFALDHLRYTIPKHYFDEALSGGKPGDDDVIEMM
- total protein half-life in vivo [1]: 4.732 ± 0.016 h
- total protein half-life in vivo [3]: 2.76 ± 0.035 h
- total protein half-life in vivo [4]: 3.46 ± 0.23 h
- total protein half-life in vivo [5]: 2.67 ± 0.22 h
- total protein half-life in vivo [6]: 3.16 ± 0.45 h
- total protein half-life in vivo [7]: 6.03 ± 2.2 h
- total protein half-life in vivo [8]: 5.97 ± 1.4 h
- total protein half-life in vivo [9]: 2.93 ± 0.19 h
- total protein half-life in vivo [10]: 3.93 ± 0.66 h
- total protein half-life in vivo [11]: 4.46 ± 0.27 h
- total protein half-life in vivo [12]: 6.94 ± 0.16 h

Sequence: MVPVVALVGRPNVGKSTLFNRLTRTRDALVADFPGLTRDRKYGRAEIEGREFICIDTGGIDGTEDGVETRMAEQSLLAIEEADVVLFMVDARAGLMPADEAIAKHLRSREKPTFLVANKTDGLDPDQAVVDFYSLGLGEIYPIAASHGRGVLSLLEHVLLPWMEDLAPQEEVDEDAEYWAQFEAEENGEEEEEDDFDPQSLPIKLAIVGRPNVGKSTLTNRILGEERVVVYDMPGTTRDSIYIPMERDGREYVLIDTAGVRKRGKITDAVEKFSVIKTLQAIEDANVVMLVIDAREGISDQDLSLLGFILNSGRSLVIVVNKWDGLSQEVKEQVKETLDFRLGFIDFARVHFISALHGSGVGNLFESVREAYDSSTRRVGTSMLTRIMTMAVEDHQPPLVRGRRVKLKYAHAGGYNPPIVVIHGNQVKDLPDSYKRYLMNYFRKSLDVMGSPIRIQFKEGENPYANKRNTLTPTQMRKRKRLMKHIKKNK [P0A6P5]
- total protein half-life in vivo [1]: 5.18 ± 0.36 h
- total protein half-life in vivo [2]: 5.53 ± 0.68 h
- total protein half-life in vivo [3]: 4.51 ± 0.067 h
- total protein half-life in vivo [4]: 4.88 ± 0.11 h
- total protein half-life in vivo [5]: 4.59 ± 0.29 h
- total protein half-life in vivo [6]: 3.2 ± 0.2 h
- total protein half-life in vivo [7]: 5.55 ± 0.11 h
- total protein half-life in vivo [8]: 10.3 ± 0.65 h
- total protein half-life in vivo [9]: 4.6 ± 0.16 h
- total protein half-life in vivo [10]: 7.38 ± 0.25 h
- total protein half-life in vivo [11]: 5.43 ± 0.67 h
- total protein half-life in vivo [12]: 10.8 ± 0.39 h
